Consider 2 molecules from PMC5156906.

The assay deals with Calcineurin A subunit alone, residues 1-348 (human) (UniProt Q08209). The experiment in a line: ITC; NFAT peptides, PALB2 or SYDE2 titrated into calcineurin in the cell; 25 °C; 20 mM Tris pH 7.5, 100 mM NaCl, 1.0 mM CaCl2, 0.5 mM TCEP; one set of sites model with n=1; averages of >=3 experiments (SYDE2: 2).

What is called Kd is the constant that tells how readily two partners part at equilibrium. Regarding DDQYLAVPQHPYQWAKPK [NFATc1 LxVP long peptide 383…400], the equilibrium dissociation constant (Kd) was 2.4 µM.

Turning to ESPRIEITS [NFATc1 PxIxIT peptide 116…124], the equilibrium dissociation constant (Kd) is 4.1 µM.
